Data from publication PMC11138481 (Molecular cell, 2023).
Ends that are not written are not given here. * marks the point of attachment. Crotonyl(E) = C/C=C/C(=O)*

Legend:
[1] = molecular target: GAS41 YEATS domain (residues 11–150) (human, UniProt O95619 11-150); assay: ITC
[2] = molecular target: GFP-GAS41 H43S protein (recombinant) (human, UniProt O95619 1-227, H43S); assay: MST
Sequence of GFP-GAS41 H43S protein (recombinant) (O95619 whole entry H43S): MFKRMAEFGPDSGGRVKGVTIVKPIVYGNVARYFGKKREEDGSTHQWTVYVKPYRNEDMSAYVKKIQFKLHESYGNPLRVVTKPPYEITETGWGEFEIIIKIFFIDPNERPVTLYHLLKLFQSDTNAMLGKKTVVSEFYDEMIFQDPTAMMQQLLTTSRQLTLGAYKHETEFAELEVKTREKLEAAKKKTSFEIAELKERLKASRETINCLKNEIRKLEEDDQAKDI

Sequence of GAS41 YEATS domain (residues 11–150) (O95619 11-150): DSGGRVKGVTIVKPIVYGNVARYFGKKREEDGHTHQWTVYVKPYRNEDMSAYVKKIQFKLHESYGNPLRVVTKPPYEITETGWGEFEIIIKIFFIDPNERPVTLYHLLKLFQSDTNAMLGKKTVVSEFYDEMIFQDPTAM

Binder	Kd [1] [µM]	fold reduction in binding against GAS41 wt [2] [fold]
ATKAARK(Ac)SAPATG [Synthesized H3 K27ac (a.a. 21-33) peptide]	51.5	~2
ATKAARK(Crotonyl(E))SAPATG [Synthesized H3 K27cr (a.a. 21-33) peptide]	22.9	6
